# Measurements reported in US6903185.
# pKd: −log10 of the molar value.
# Legend:
# [1] = biological target: NRE peptide (three-finger Zif268 variant) (synthetic) (UniProt P08046); experiment: cell_activity; conditions: 293 cells
# [2] = biological target: 268/NRE (six-finger fusion, shorter linker RQKDGERP) (synthetic) (UniProt P08046); experiment: cell_activity; conditions: 293 cells
# [3] = biological target: Zif268 and NRE peptides co-expressed as separate chains (synthetic) (UniProt P08046+P08046); experiment: cell_activity; conditions: co-expression of unlinked peptides; 293 cells
# [4] = biological target: 268//NRE (six-finger fusion, longer linker) (synthetic) (UniProt P08046); experiment: cell_activity; conditions: VP16-activated transcription, 293 cells
# [5] = biological target: 268//NRE (six-finger fusion, Zif268 fingers - longer linker - NRE fingers) (synthetic) (UniProt P08046); experiment: EMSA; conditions: room temp
# [6] = biological target: NRE peptide (three-finger Zif268 variant selected by phage display) (synthetic) (UniProt P08046); experiment: EMSA
sequence,measurement,setting,value
AAGGGTTCA (double strand) [N site in luciferase reporter promoter],activity (fold repression),[1],1.9
AAGGGTTCAGGCGTGGGCG (double strand) [N/Z site in luciferase reporter promoter],activity (fold repression),[2],68
same,activity (fold repression),[1],1.8
same,activity (fold repression),[3],8.5
same,activity (fold repression),[4],72
AAGGGTTCAGTGCGTGGGCG (double strand) [N//Z site in luciferase reporter promoter],activity (fold repression),[2]; linker modelled too short for all six fingers to bind,22
same,activity (fold repression),[1],2.7
same,activity (fold repression),[4],47
GTGTGTGTGTGATCTGCGTGGGCGGTAAG (double strand) [Z site],pKd,"[5]; exact Kd not determined, smeared band",11.00
TCTGCAAGGGTTCAGCGTGGGCGGTAAG (double strand) [NZ site],pKd,"[5]; calculated from koff/kon, direct titration <1.0 pM, pH 7.0, 100 mM NaCl, 5 mM MgCl2, Zn",14.68
same,pKd,[6]; apparent Kd with 0.1 nM Zif268 prebound to neighboring site,10.22
same,pKd,"[6]; apparent Kd, NRE peptide alone",9.74
TCTGCAAGGGTTCAGGCGACACCAACCAA (double strand) [N site],pKd,[5],9.72
TCTGCAAGGGTTCAGGCGTGGGCGGTAAG (double strand) [N/Z site],pKd,"[5]; calculated from koff/kon, direct titration <1.0 pM, p113 states 3.8 fM",14.43
same,pKd,[6]; room temp,9.74
TCTGCAAGGGTTCAGTGCGTGGGCGGTAAG (double strand) [N//Z site],pKd,"[5]; calculated from koff/kon, direct titration <1.0 pM",14.52
